Data as given in the supplement of paper PMC12042874.
± gives the uncertainty stated by the source.

Experiment: amyloid nucleation score (Sup35N fusion, yeast selection) (log enrichment); library NNK3; higher = more nucleation; inactive = no reads after selection
Outline: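 After 24 hours of induction with 100 μM copper sulfate, psi-negative yeast expressing peptides of 20 random codons fused to Sup35N were grown for 7 days at 30°C on medium lacking adenine and uracil. Input and output plasmid inserts were sequenced with Illumina, and sequences with under 100 input reads were discarded. Scores for nucleation are the DiMSum log enrichment of output over input reads, centred on the mode score of non-aggregating sequences.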
For IYSSCPFNLTSRMVGF, the amyloid nucleation score was “inactive”. IYTFSCDIYCNMSFCLWFDN gave an amyloid nucleation score of 2 ± 0.088. In the case of IYWDTRLGFCAYAKC, the amyloid nucleation score is reported as “inactive”. For KANFNVSVGKSVHATCLLTL, the amyloid nucleation score was “inactive”. For KAPVVWYDMEARQKCVRGGG, the amyloid nucleation score was “inactive”. In the case of KATWSCLHLATHSASPCQSA, the amyloid nucleation score is reported as “inactive”. In the case of KAVVLGEWTRSFCSLDFNI, the amyloid nucleation score is reported as “inactive”. With KAWETWAITTRSWKMFIRCL the amyloid nucleation score was 0.046 ± 0.96. In the case of KCFISYR, the amyloid nucleation score is reported as “inactive”. With KCIGDLTSRMDLR the amyloid nucleation score was “inactive”. In the case of KCLKCKTGLCTMQGEYNRSY, the amyloid nucleation score is reported as -0.475 ± 0.88. For KDADMDLLSRYATRCGVSRL, the amyloid nucleation score was “inactive”. For KDCMVYWLRI, the amyloid nucleation score was “inactive”. KDNPLSCLVKVNVWTKLQEG showed an amyloid nucleation score of 1.16 ± 0.12. KDSQALHRFSNTILRYL showed an amyloid nucleation score of -0.406 ± 0.82. In the case of KDSRSCLSFL, the amyloid nucleation score is reported as “inactive”. For KDSYMSCYKPRYVLPRRIIQ, the amyloid nucleation score was “inactive”. For KEADSVNDRLVNLLMHGTLC, the amyloid nucleation score was “inactive”. For KESVYPTWHMRWFVYCELVL, the amyloid nucleation score was “inactive”. In the case of KFGVLRLVFSTLVSTLSRMV, the amyloid nucleation score is reported as “inactive”. For KFIWYIDDCWWCTTICSSGG, the amyloid nucleation score was “inactive”. With KFLRVFVKRTLESLRRVTSV the amyloid nucleation score was “inactive”. For KFLYGGFCGWMSAVLNVLYP, the amyloid nucleation score was -0.364 ± 0.82. In the case of KFTFMQIKISPFDTCIQGWW, the amyloid nucleation score is reported as -0.067 ± 0.4. In the case of KFTYSLKLCADFGFLSTWKV, the amyloid nucleation score is reported as “inactive”. In the case of KFVDDRKVCLVLHH, the amyloid nucleation score is reported as “inactive”. KFVQSIIGHWNLGHMPCGSM showed an amyloid nucleation score of 0.587 ± 0.17. In the case of KGETEPYKDSMLQKLTGQLQ, the amyloid nucleation score is reported as “inactive”. With KGFRAVCWICIYRDEY the amyloid nucleation score was -0.533 ± 0.84. For KGGDELYFEELDEWSQGSRR, the amyloid nucleation score was “inactive”. With KGGWEADLYYVVCLVIISIW the amyloid nucleation score was “inactive”. For KGLFWEGYGMMLRLRWWMMV, the amyloid nucleation score was “inactive”. For KGLSIIWMGQFGGAEFRITG, the amyloid nucleation score was “inactive”. In the case of KGLVLAYILSRSVFERFKGG, the amyloid nucleation score is reported as “inactive”. With KGSTSAVIGRYGWLRMRC the amyloid nucleation score was “inactive”. For KGSVMTCDSYTCFMLNSEVL, the amyloid nucleation score was 1.47 ± 0.13. In the case of KGTMVQTVKSVWLGEHIVLA, the amyloid nucleation score is reported as “inactive”. In the case of KGWLSSWVA, the amyloid nucleation score is reported as “inactive”. For KICAK, the amyloid nucleation score was “inactive”. With KIFYYTWYSLSYTIQLYGLQ the amyloid nucleation score was “inactive”. With KIGGVYVLVS the amyloid nucleation score was “inactive”. For KINDCYGYYDLYWNWSIVRF, the amyloid nucleation score was “inactive”. Substance KIQSMISTITMVFTKLLSHL has an amyloid nucleation score of -0.546 ± 0.7. KIYIILNGWQVSLIDYYGGK gave an amyloid nucleation score of 2.58 ± 0.056. In the case of KIYWGATLNQTSYRVAVCLT, the amyloid nucleation score is reported as “inactive”. In the case of KKFGSYEWSRI, the amyloid nucleation score is reported as “inactive”. For KKSKRISLGR, the amyloid nucleation score was “inactive”. In the case of KLFRIKNGSVEVIWYRNMCQ, the amyloid nucleation score is reported as 0.973 ± 0.14. For KLFVVHSREGEFIFSI, the amyloid nucleation score was “inactive”. For KLICVRTDWWSCVIISRFSL, the amyloid nucleation score was “inactive”. For KLRFKLRSLVNNNCGVVTRA, the amyloid nucleation score was “inactive”. With KLRVFV the amyloid nucleation score was “inactive”. Substance KLTIRYLWYPLEQSGYRTCE has an amyloid nucleation score of 1.06 ± 0.2. For KLVATVFTSRCATVWLVQGF, the amyloid nucleation score was “inactive”. In the case of KLWFGHMPTIF, the amyloid nucleation score is reported as “inactive”. For KLWPM, the amyloid nucleation score was “inactive”. In the case of KMACTCAESTVIIS, the amyloid nucleation score is reported as “inactive”. For KMGPILKCPR, the amyloid nucleation score was “inactive”. With KMGTRGWLSDIAGNMVYVLC the amyloid nucleation score was “inactive”. In the case of KNERVWVSRWETFKLHCSRV, the amyloid nucleation score is reported as “inactive”. For KNGIITLSSIT, the amyloid nucleation score was “inactive”. For KNINVLYHICAALKSCAFCT, the amyloid nucleation score was “inactive”. For KNSTWMSESVNNRFFIQVGA, the amyloid nucleation score was “inactive”. In the case of KNTSCWAATSADQRRVDFRR, the amyloid nucleation score is reported as “inactive”. In the case of KPGIRYYFISM, the amyloid nucleation score is reported as 1.52 ± 0.12. With KPMGYYLFDVTTELYDNDWF the amyloid nucleation score was “inactive”. In the case of KPRVMFMISARVFVNYRICS, the amyloid nucleation score is reported as “inactive”. In the case of KPVKTWNYLFWMCL, the amyloid nucleation score is reported as 2.49 ± 0.072. For KQADVFIIMSRVIGNRGCLF, the amyloid nucleation score was “inactive”. Work on KQCIFNISLCSS yielded an amyloid nucleation score of 0.008 ± 0.42. For KQKMYTAVPKGIQNILEA, the amyloid nucleation score was “inactive”. In the case of KRFGKMLLW, the amyloid nucleation score is reported as “inactive”. With KRFTGSK the amyloid nucleation score was “inactive”. For KRGMSHVSVCFIMRCFLYID, the amyloid nucleation score was “inactive”. With KRHYMGTAQGCMGIVLKVFY the amyloid nucleation score was “inactive”. For KRLQWMYYL, the amyloid nucleation score was “inactive”. In the case of KRMSKKALRLVVSYFSPS, the amyloid nucleation score is reported as “inactive”. In the case of KRNRRTISLMTKFIMGKPGY, the amyloid nucleation score is reported as “inactive”. For KRSHY, the amyloid nucleation score was “inactive”. In the case of KRSPKIQDL, the amyloid nucleation score is reported as “inactive”. With KRSSA the amyloid nucleation score was “inactive”. Substance KRVRGLALTQIY has an amyloid nucleation score of 0.159 ± 0.45. With KSFRIMMLRSWMLRLLKYQL the amyloid nucleation score was “inactive”. In the case of KSFWVHMTGAFVCARYWCLP, the amyloid nucleation score is reported as 0.97 ± 0.17. KSGPYAVRLSEISWCDVRAG showed an amyloid nucleation score of 0.153 ± 0.88. With KSGTCK the amyloid nucleation score was “inactive”. In the case of KSMATMSQIVPDSFSEFDWY, the amyloid nucleation score is reported as “inactive”. For KSMIAGVTMWLLCTVSLSYN, the amyloid nucleation score was “inactive”. Work on KSMYWLYCTEWEHSNMHVFM yielded an amyloid nucleation score of 0.17 ± 0.68. In the case of KSVRNTAHLWHCVLTIYVYL, the amyloid nucleation score is reported as “inactive”. In the case of KSVYMHTGPGKGNRVVEKCM, the amyloid nucleation score is reported as “inactive”. With KTCIVCMLHL the amyloid nucleation score was 3.32 ± 0.068. In the case of KTLIRASWSLSC, the amyloid nucleation score is reported as “inactive”. KTRSAMRDLVVSFWYF gave an amyloid nucleation score of 1.65 ± 0.075. With KTSVEISN the amyloid nucleation score was “inactive”. Work on KVFMGRCCWLCSPY yielded an amyloid nucleation score of 1.42 ± 0.1. Substance KVGTVLWCFTCSAGHRECNG has an amyloid nucleation score of 2.75 ± 0.055. In the case of KVILPWKLWADGWRDY, the amyloid nucleation score is reported as “inactive”. With KVRRGQLKIRS the amyloid nucleation score was “inactive”. For KVSDKPHHKRGVGLDLMMMD, the amyloid nucleation score was “inactive”. In the case of KVTFKYLLKSVSLGQGTT, the amyloid nucleation score is reported as 0.341 ± 0.28. In the case of KWCKKKQFKSLDWLTYDI, the amyloid nucleation score is reported as “inactive”. In the case of KWKVAKVGDWQAAPTLGSHR, the amyloid nucleation score is reported as “inactive”. For KWLMNSNFAWLI, the amyloid nucleation score was “inactive”. Substance KYEMTIPSSVLRALSNKHWL has an amyloid nucleation score of -0.539 ± 1.4. KYITHLFFFILSERYCWFPM showed an amyloid nucleation score of -0.341 ± 0.56. In the case of KYKLTLYDNAVSGGDALHLR, the amyloid nucleation score is reported as “inactive”. With KYLAFLQLCGAPMYLWTPPI the amyloid nucleation score was 0.757 ± 0.3. With KYLGG the amyloid nucleation score was “inactive”. For KYNAIVLVYPKSADCVKTLM, the amyloid nucleation score was 0.387 ± 0.36. For KYQLPRDNFS, the amyloid nucleation score was “inactive”. With KYSMTK the amyloid nucleation score was “inactive”. With KYVVQPYGSCRWGLITVRAN the amyloid nucleation score was “inactive”. In the case of KYWDPQFP, the amyloid nucleation score is reported as “inactive”. With LADFRGQSLTDEGCMWTSSG the amyloid nucleation score was “inactive”. With LAITLRLLFVNIIFTDPDLY the amyloid nucleation score was “inactive”. In the case of LALCSTCFNLVYIICVGKKW, the amyloid nucleation score is reported as “inactive”. For LAMHIALDSNRDKAFGVLNE, the amyloid nucleation score was “inactive”. With LARQFF the amyloid nucleation score was “inactive”. In the case of LASLTRLLDFMMSVENTYSA, the amyloid nucleation score is reported as “inactive”. For LAVFFDRD, the amyloid nucleation score was “inactive”. With LAVFSEARNEGTTQFYYLLK the amyloid nucleation score was “inactive”. With LCALTS the amyloid nucleation score was “inactive”. With LCDFSLGGYSGNCYIFKMSV the amyloid nucleation score was 0.739 ± 0.28. In the case of LCETCKNVARIYSFLIGMTD, the amyloid nucleation score is reported as “inactive”. For LCGLERLKVMQWHSVPRKHI, the amyloid nucleation score was “inactive”. Work on LCGPSDLAT yielded an amyloid nucleation score of 0.096 ± 0.66. For LCLFGLLYNIETFSIVVDYS, the amyloid nucleation score was “inactive”. For LCMAFNVIPQTSFLALKASC, the amyloid nucleation score was “inactive”. With LCRLLVSTWNSASSFFCRKL the amyloid nucleation score was “inactive”. For LCRYRNSYICSGNIIWMCSL, the amyloid nucleation score was “inactive”. With LCTCTLCSLYV the amyloid nucleation score was “inactive”. In the case of LCVRFARMSGSAHLVESYVD, the amyloid nucleation score is reported as “inactive”. For LCVRYDMSEGLRKGWWYGVG, the amyloid nucleation score was “inactive”. With LDCFCSPVKVTWH the amyloid nucleation score was 0.146 ± 0.21. In the case of LDGMYHTVRICNSCF, the amyloid nucleation score is reported as “inactive”. With LDGQFNNLYMYPSFYQEVAG the amyloid nucleation score was “inactive”. With LDLDSNRFKVDLNDLYELVV the amyloid nucleation score was “inactive”. For LDLSSYVHSTLEPGQWKRSR, the amyloid nucleation score was “inactive”. For LDMFHSEIIFLMWYRGWVNA, the amyloid nucleation score was “inactive”. In the case of LDTLLVYHFRKERVLNTGVN, the amyloid nucleation score is reported as “inactive”. For LDTSNMPTYGLKSEVSVIAR, the amyloid nucleation score was “inactive”. In the case of LDVMTCNRLKVTVDFMCMNA, the amyloid nucleation score is reported as “inactive”. With LEESFSKNLSKSFYIQ the amyloid nucleation score was “inactive”. LEFVY gave an amyloid nucleation score of 0.238 ± 0.52. With LEGGSITCLSPC the amyloid nucleation score was “inactive”. With LELRYCLFADPMI the amyloid nucleation score was “inactive”. For LELVYGKIYSDPSTFRGHLV, the amyloid nucleation score was “inactive”. In the case of LETMN, the amyloid nucleation score is reported as “inactive”. For LETNG, the amyloid nucleation score was “inactive”. In the case of LEWERPS, the amyloid nucleation score is reported as “inactive”. For LFASWEDFLASSRYWRLEKR, the amyloid nucleation score was 0.356 ± 0.39. Substance LFCLKIKLEAERRYLQGLRH has an amyloid nucleation score of 1.72 ± 0.09. With LFCRVWSFGVLMCFE the amyloid nucleation score was “inactive”. For LFDFADSMVRQVRTDAKRLN, the amyloid nucleation score was “inactive”. For LFEPVIEILI, the amyloid nucleation score was “inactive”. With LFEWMRCMTVFMVGAAYAAT the amyloid nucleation score was “inactive”. Work on LFILFSNGYTVGYNSDNRSF yielded an amyloid nucleation score of 0.601 ± 0.22. For LFITSHREGDWWLSTVRIHF, the amyloid nucleation score was 0.367 ± 0.27. In the case of LFLDWALIFLV, the amyloid nucleation score is reported as “inactive”.
